Test results reported in patent publication US9193963B2, “Mutant endoglucanase” (Toray Industries, Inc., priority 2011, dated 2015).

Key:
[1] = Saccharification of lignocellulose 2 with Celluclast and endoglucanase; format: biochemical, Rice straw; conditions: 5 wt % Lignocellulose 2, pH 5.2, 50° C., 24 hours; 1.0 mg/mL cellulase + 0.1 mg/mL endoglucanase
Description: (§1) Rice straw was used as cellulose. Cellulose was immersed in a 1% aqueous sulfuric acid solution, and then autoclaved for 30 minutes at 150° C. (Nitto Koatsu Co. Ltd.). After treatment, the resultant was subjected to solid-liquid separation into an aqueous sulfuric acid solution (hereinafter, referred to as “dilute-sulfuric-acid-treated solution”) and cellulose treated with sulfuric acid. Next, the cellulose treated with sulfuric acid was mixed and agitated with the dilute-sulfuric-acid-treated solution so that the solid content concentration was 10 wt %. Then the mixture was adjusted to around pH 5 using sodium hydroxide. The resultant was used as lignocellulose 2 for the following examples.
(§2) The changes in the amount of glucose generated when the enzyme composition had been caused to act on lignocellulose substrates were compared. The substrates were prepared by suspending 5 wt % lignocelluloses (1 to 3) (prepared in Reference Example 3) in 50 mM acetate buffer (pH5.2). Reactions were performed at 50° C. for 24 hours. The concentrations of the generated glucose were measured after adequate sampling. As a filamentous bacterium-derived cellulase mixture, commercially available Trichoderma reesei-derived cellulase (Celluclast, Sigma) was used. As endoglucanases, the mutant endoglucanases prepared in Example 2 and the wild-type endoglucanases prepared in Reference Example 1 were separately used. The following quantities of enzymes were added: 1.0 mg/mL cellulase, and 0.1 mg/mL endoglucanase (in an amount one tenth that of the cellulase).

[2] = Inhibition experiment with vanillin: degradation of phosphoric acid swollen cellulose; format: biochemical; conditions: enzyme 0.5 μM, 1 hour, 50° C., parent at 0 mM = 100%
Description: (§6) This substance was diluted using buffer and water to obtain a 2 wt % mixture so that the final concentration of sodium acetate was 50 mM (pH 5.2). This was designated as phosphoric acid swollen cellulose and used for the following examples.
The activity of the wild-type and the mutant endoglucanases to degrade phosphoric acid swollen cellulose in the presence of vanillin was measured. 1% phosphoric acid swollen cellulose/50 mM acetate buffer (pH 5.2) was used as a substrate. Vanillin (Sigma Aldrich) was added at final concentrations of 0, 5, 10, and 15 mM. The enzymes prepared in Reference Example 1 and Example 2 were added at a final concentration of 0.5 μM, followed by 1 hour of enzymatic reaction at 50° C.

[3] = Saccharification of lignocellulose 1 with Trichoderma reesei culture solution and endoglucanase; format: biochemical, Rice straw; conditions: Lignocellulose 1, 24 hours; cellulase 1.0 mg/mL + endoglucanase 0.1 mg/mL + β-glucosidase (Novozyme 188) 0.01 mg/mL
Description: (§3) Rice straw was used as cellulose. The cellulose was added to a small reactor (Taiatsu Techno Corporation, TVS-N2 (30 ml)), and then cooled with liquid nitrogen. An ammonia gas was fed to the reactor, thereby completely immersing the sample in the liquid ammonia. The reactor was closed using its lid, and then left to stand at room temperature for 15 minutes. Subsequently, treatment was performed for 1 hour in an oil bath at 150° C. After treatment, the reactor was removed from the oil bath, an ammonia gas leak was immediately performed within a draft chamber. The reactor was vacuumed using a vacuum pump to 10 Pa for drying. The resultant was used as lignocellulose 1 in the following examples.
as §2
(§4) Lignocelluloses (1-3) prepared in Reference Example 3 were used as substrates. The Trichoderma reesei culture solution prepared in Reference Example 4 was used as a filamentous bacterium-derived cellulase mixture. Lignocelluloses (1-3) were hydrolyzed in a manner similar to that in Example 7, except for the quantities of the enzymes added: cellulase (1.0 mg/mL); endoglucanase (0.1 mg/mL (in an amount one tenth that of the cellulase); and β-glucosidase (Novozyme 188) (0.01 mg/mL (in an amount one hundredth that of the cellulase).

[4] = Saccharification of lignocellulose 3 with Trichoderma reesei culture solution and endoglucanase; format: biochemical, Rice straw; conditions: Lignocellulose 3, 24 hours; cellulase 1.0 mg/mL + endoglucanase 0.1 mg/mL + β-glucosidase (Novozyme 188) 0.01 mg/mL
Description: (§5) Rice straw was used as cellulose. The cellulose was immersed in water, and then autoclaved with agitation at 180° C. for 20 minutes (Nitto Koatsu Co. Ltd.). Pressure at this time was 10 MPa. After treatment, a solution component (hereinafter, referred to as “hydrothermally treated solution”) and the treated biomass component were subjected to solid-liquid separation by centrifugation (3000 G). The thus treated biomass component was used as lignocellulose 3 for the following examples.
as §2, §4

[5] = Saccharification of lignocellulose 2 with Trichoderma reesei culture solution and endoglucanase; format: biochemical, Rice straw; conditions: Lignocellulose 2, 24 hours; cellulase 1.0 mg/mL + endoglucanase 0.1 mg/mL + β-glucosidase (Novozyme 188) 0.01 mg/mL
Description: as §1, §2, §4

[6] = Saccharification of lignocellulose 1 with Celluclast and endoglucanase; format: biochemical, Rice straw; conditions: 5 wt % Lignocellulose 1, pH 5.2, 50° C., 24 hours; 1.0 mg/mL cellulase + 0.1 mg/mL endoglucanase
Description: as §3, §2

[7] = Activity to degrade phosphoric acid swollen cellulose; format: biochemical
Description: The term “identity” refers to the percentage of amino acid residues identical to and amino acid residues analogous to the other amino acid residues in all the amino acid residues overlapped when an optimum alignment is performed by introducing gaps or no gaps into two amino acid sequences and then aligning the two amino acid sequences. Such an identity can be found using a method known by persons skilled in the art, sequence analysis software, and the like (a known algorithm such as BLAST or FASTA). The term “endoglucanase activity” is as defined above and can be determined by adding an enzyme solution to a substrate solution of phosphoric acid swollen cellulose that has been dissolved in 50 mM acetic acid-sodium acetate buffer (pH 5.2) or the like, performing 1 hour of reaction at 30° C. to 85° C., stopping the reaction by changing the pH if necessary, and then determining the concentration of glucose in the reaction solution using a glucose determination kit, for example.
The mutants obtained in Comparative Example 1 were compared in terms of activity by a technique similar to that in Example 3. The concentration (g/L) of glucose generated by each parent endoglucanase under the above reaction conditions was determined to be 100%.

[8] = Inhibition experiment with ferulic acid: degradation of phosphoric acid swollen cellulose; format: biochemical; conditions: enzyme 0.5 μM, 1 hour, 50° C., parent at 0 mM = 100%
Description: as §6
The activity of the wild-type and the mutant endoglucanases to degrade phosphoric acid swollen cellulose was measured in the presence of ferulic acid. 1% phosphoric acid swollen cellulose/50 mM acetate buffer (pH 5.2) was used as a substrate. Ferulic acid (Sigma Aldrich) was added at final concentrations of 0, 5, 10, and 15 mM. The enzymes prepared in Reference Example 1 and Example 2 were each added at a final concentration of 0.5 μM, followed by 1 hour of enzymatic reaction at 50° C.

[9] = Saccharification of lignocellulose 3 with Celluclast and endoglucanase; format: biochemical, Rice straw; conditions: 5 wt % Lignocellulose 3, pH 5.2, 50° C., 24 hours; 1.0 mg/mL cellulase + 0.1 mg/mL endoglucanase
Description: as §5, §2

[10] = 1% phosphoric acid swollen cellulose, pH 5.2, enzyme 0.5 μM, 1 hour, 50° C., glucose generated by each parent endoglucanase = 100%

Row | Molecule | Concentration of glucose generated, Celluclast + Wild-type [1] [g/L] | Relative activity to degrade phosphoric acid swollen cellulose ([2]; vanillin 0 mM) [%] | Relative activity to degrade phosphoric acid swollen cellulose ([2]; vanillin 5 mM) [%] | Relative activity to degrade phosphoric acid swollen cellulose ([2]; vanillin 10 mM) [%] | Relative activity to degrade phosphoric acid swollen cellulose ([2]; vanillin 15 mM) [%] | Concentration of glucose generated, Culture solution + Wild-type [3] [g/L] | Concentration of glucose generated, Culture solution + Wild-type [4] [g/L] | Concentration of glucose generated, Culture solution + Wild-type [5] [g/L] | Concentration of glucose generated, Celluclast + Wild-type [6] [g/L] | Relative activity [7, 10] [%] | Relative activity to degrade phosphoric acid swollen cellulose ([8]; ferulic acid 0 mM) [%] | Relative activity to degrade phosphoric acid swollen cellulose ([8]; ferulic acid 5 mM) [%] | Relative activity to degrade phosphoric acid swollen cellulose ([8]; ferulic acid 10 mM) [%] | Relative activity to degrade phosphoric acid swollen cellulose ([8]; ferulic acid 15 mM) [%] | Concentration of glucose generated, Celluclast + Wild-type [9] [g/L] | other results
1 | EGPh Wild-type: Pyrococcus horikoshii-derived endoglucanase, SEQ ID NO: 1, parent endoglucanase (protein, Pyrococcus horikoshii EGPh) MEGNTILKIVLICTILAGLFGQVVPVYAENTTYQTPTGIYYEVRGDTIYMINVTSGEETPIHLFGVNWFGFETPNHVVHGLWKRNWEDMLLQIKSLGFNAIRLPFCTESVKPGTQPIGIDYSKNPDLRGLDSLQIMEKIIKKAGDLGIFVLLDYHRIGCTHIEPLWYTEDFSEEDFINTWIEVAKRFGKYWNVIGADLKNEPHSVTSPPAAYTDGTGATWGMGNPATDWNLAAERIGKAILKVAPHWLIFVEGTQFTNPKTDSSYKWGYNAWWGGNLMAVKDYPVNLPRNKLVYSPHVYGPDVYNQPYFGPAKGFPDNLPDIWYHHFGYVKLELGYSVVIGEFGGKYGHGGDPRDVIWQNKLVDWMIENKFCDFFYWSWNPDSGDTGGILQDDWTTIWEDKYNNLKRLMDSCSKSSSSTQSVIRSTTPTKSNTSKKICGPAILIILAVFSLLLRRAPR | 11 | 100 | 40 | 40 | 40 | 9 | 10 | 8 | 12 | 100 | 100 | 60 | 50 | 50 | 12 | Relative activity ([7]; Comparative Example 2, technique similar to Example 3, parent endoglucanase = 100%): 100%
2 | EGSt Wild-type: Spirochaeta thermophile-derived endoglucanase, SEQ ID NO: 37, parent endoglucanase (protein, Spirochaeta thermophila EGSt) MKYLRTILLSLLVFLITLGCSLPFLDVSGKGGTAARATELRVGRLTGVNWFGFETGNHVVHGLWARDYKSMLKQIADLGFNCIRIPWANEMIDKAPNSIQINPSGVDPYTGEQGLNLDLEGLSSLEVLDKIIEEANRLGLYVILDNHSRAADGYMNETLWYTDEYPEERWISDWVMMVRRYKNYPNVIGADLNNEPHGNTGTGMKPPATWGYTLPEYGDTDWKAAAERCAAAILAENPNLYIIVEGVEEYQGDTYWWGGNLKGVRDYPITSIPAENLIYSPHEYGPEVYNQSWFSDPTFPDNMPAIWDEHFWFIYKENIAPVLIGEFGIKEASAADPSSVAYQWFTTFMAYVGDKASWTFWSWNPNSGDTGGILKDDWVTVNEAKYNLIRPYLANPPQPTATPTPTGTPTPTPTPTPTPTPTPTPTPTPTPTATPTPTPTPTPTPTPTPTATPTPSGEYTEIALPFSYDGAGEYYWKTDQFSTDPNDWSRYVNSWNLDLLEINGTDYTNVWVAQHQIPAASDGYWYIHYKSGVSWGHVEIK | 12 | 100 | 50 | 50 | 45 | 8 | 8 | 9 | 11 | 100 | 100 | 50 | 45 | 40 | 11 | 
3 | EGSt Mutant: mutant EGSt, SEQ ID NO: 38; residue corresponding to 273rd tryptophan substituted with alanine (protein, Spirochaeta thermophila EGSt W257A, residue corresponding to 273rd tryptophan substituted with alanine) MKYLRTILLSLLVFLITLGCSLPFLDVSGKGGTAARATELRVGRLTGVNWFGFETGNHVVHGLWARDYKSMLKQIADLGFNCIRIPWANEMIDKAPNSIQINPSGVDPYTGEQGLNLDLEGLSSLEVLDKIIEEANRLGLYVILDNHSRAADGYMNETLWYTDEYPEERWISDWVMMVRRYKNYPNVIGADLNNEPHGNTGTGMKPPATWGYTLPEYGDTDWKAAAERCAAAILAENPNLYIIVEGVEEYQGDTYWAGGNLKGVRDYPITSIPAENLIYSPHEYGPEVYNQSWFSDPTFPDNMPAIWDEHFWFIYKENIAPVLIGEFGIKEASAADPSSVAYQWFTTFMAYVGDKASWTFWSWNPNSGDTGGILKDDWVTVNEAKYNLIRPYLANPPQPTATPTPTGTPTPTPTPTPTPTPTPTPTPTPTPTATPTPTPTPTPTPTPTPTATPTPSGEYTEIALPFSYDGAGEYYWKTDQFSTDPNDWSRYVNSWNLDLLEINGTDYTNVWVAQHQIPAASDGYWYIHYKSGVSWGHVEIK |  | 100 | 100 | 100 | 90 |  |  |  |  | 100 | 100 | 100 | 100 | 90 |  | Concentration of glucose generated, Celluclast + Mutant [1]: 15 g/L; Concentration of glucose generated, Culture solution + Mutant [3]: 11 g/L; Concentration of glucose generated, Culture solution + Mutant [4]: 11 g/L; Concentration of glucose generated, Culture solution + Mutant [5]: 12 g/L; Concentration of glucose generated, Celluclast + Mutant [6]: 14 g/L; Concentration of glucose generated, Celluclast + Mutant [9]: 14 g/L
